Test results: patent US20150125397A1, “DUAL SPECIFIC BINDING PROTEINS DIRECTED AGAINST IMMUNE CELL RECEPTORS AND AUTOANTIGENS” (ABBVIE INC., priority 2013, published 2015)

Biological target: Human IgM (Homo sapiens, UniProt P01871)
Experiment: IgM binding assay (human IgM)

Chain of Human IgM (P01871 1-433 limits assumed): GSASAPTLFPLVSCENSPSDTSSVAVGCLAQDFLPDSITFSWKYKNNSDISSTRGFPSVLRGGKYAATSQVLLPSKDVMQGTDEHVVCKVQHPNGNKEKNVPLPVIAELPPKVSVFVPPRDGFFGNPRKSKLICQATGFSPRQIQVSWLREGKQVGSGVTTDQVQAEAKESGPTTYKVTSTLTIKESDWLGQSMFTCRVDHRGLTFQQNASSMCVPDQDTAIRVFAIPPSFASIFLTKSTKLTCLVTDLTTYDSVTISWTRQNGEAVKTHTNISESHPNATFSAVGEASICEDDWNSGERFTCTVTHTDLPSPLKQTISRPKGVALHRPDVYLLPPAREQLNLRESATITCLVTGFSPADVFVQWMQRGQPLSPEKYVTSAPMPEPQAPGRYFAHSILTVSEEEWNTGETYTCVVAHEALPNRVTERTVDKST
Chain of Human IgM (P01591 23-159 partner): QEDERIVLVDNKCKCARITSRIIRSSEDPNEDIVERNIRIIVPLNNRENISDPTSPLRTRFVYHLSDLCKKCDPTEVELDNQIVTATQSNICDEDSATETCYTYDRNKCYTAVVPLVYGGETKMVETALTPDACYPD

potency in human IgM binding assay: highest potency
B1: DVD3769: DVD-Ig: VD1 hIgM (HB-57.3), SL linker, VD2 DNA (PA4); heavy SEQ ID NO 80, light 81 (antibody)
heavy: QVQLQQPGAEFVKPGAPVKLSCKASGYPFTTYWVNWMKQRPGRGLEWIGRIDPYDSETLYNQKFKDKATLTVDKSSSTAYIQLSSLTSEDSAVYYCARETYDYPFAYWGQGTLVTVSSASTKGPEVQLVESGGGLVKPGGSLKLSCVASGFTFSTYAMSWVRQTPTKRLEWVATISRGGVSTYYPDTVKGRFTISRDNAKNTLYLQMSSLRSEDTAMYYCARPPTIVTTWFAYWGQGTLVTVSS
light: DIVMTQSPSSLAMSVGQKVTMSCKSSQSLLNSSNQKNYLAWYQQKPGQSPELLVYFASTRESGVPDRFIGSGSGTDFTLTISSVQAEDLADYFCQQHYSTPFTFGSETKLEIKRTVAAPSVFIFPPDVVMTQTPLSLPVSLGDQASISCRSSQSLVHSNGNTYLHWYLQKPGQSPKLLIYKVSNRFSGVPDRFSGSGSGTDFTLKISRVEAEDLGAYFCSQSTHVPYTFGGPTRLEIKR
